From article PMC2783259
Read-outs that look alike come from different tables or passages of the source.

What was measured:
[1] = biological target: human FcγRIIA (CD32), R131 allotype, on CV-1 cells (human); assay: inhibition of rosette formation
[2] = biological target: human FcγRIA (CD64) co-expressed with the common γ chain on CV-1 cells (human) (UniProt P12314); assay: inhibition of rosette formation
[3] = biological target: human FcγRIIA (CD32), H131 allotype, on CV-1 cells (human) (UniProt P12318); assay: inhibition of rosette formation
[4] = biological target: human FcγRIIA (CD32), H131 allotype, on CV-1 cells (human) (UniProt P12318); assay: inhibition of rosette formation; remark: listed apart in the source
[5] = biological target: human FcγRIA (CD64) co-expressed with the common γ chain on CV-1 cells (human) (UniProt P12314); assay: inhibition of rosette formation; remark: listed apart in the source
[6] = biological target: The FcγRIA and FcγRIIA transfectants; assay: rosette formation

Row | Substance | percent inhibition of rosette formation [1] [%] | percent inhibition of rosette formation [2] [%] | also measured
1 | human IgG1 myeloma protein, heat-aggregated (antibody) | > 90 | > 90 | –
2 | human IgG2 myeloma protein, heat-aggregated (antibody) | – | – | percent inhibition of rosette formation [3]: 60%; percent inhibition of rosette formation [4]: 65%; percent inhibition of rosette formation [5]: 20%
3 | human IgG3 myeloma protein, heat-aggregated (antibody) | > 90 | > 90 | –
4 | rabbit IgG on opsonized sheep red blood cells (SRBC) (antibody) | – | – | percent rosette formation [6]: 82 to 97%
